The text below walks through data of US20040005333A1 (HER MAJESTY THE QUEEN IN RIGHT OF CANADA AS REPRESENTED BY …, published 2004).

In test [1] the target is protein G agarose (UniProt P06654 228-352). The test is described as follows: protein G agarose precipitation, SDS-PAGE with Coomassie staining.
In test [2] the target is T1, human C1q protein (human, UniProt P02745 23-245; P02746 28-253; P02747 29-245).
T1 construct: also called human C1q complement
The test is described as follows: ELISA on strips coated with human C1q, HRP-anti-human Ab detection.

T1 sequence (P02745 23-245 limits assumed, chain 1 of 3): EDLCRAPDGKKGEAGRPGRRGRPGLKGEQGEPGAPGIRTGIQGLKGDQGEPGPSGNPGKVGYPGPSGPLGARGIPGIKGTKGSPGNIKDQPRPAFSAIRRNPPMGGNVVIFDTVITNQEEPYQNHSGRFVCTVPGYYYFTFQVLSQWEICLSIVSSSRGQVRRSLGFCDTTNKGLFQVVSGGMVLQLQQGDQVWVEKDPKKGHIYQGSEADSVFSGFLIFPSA
T1 sequence (P02746 28-253 limits assumed, chain 2 of 3): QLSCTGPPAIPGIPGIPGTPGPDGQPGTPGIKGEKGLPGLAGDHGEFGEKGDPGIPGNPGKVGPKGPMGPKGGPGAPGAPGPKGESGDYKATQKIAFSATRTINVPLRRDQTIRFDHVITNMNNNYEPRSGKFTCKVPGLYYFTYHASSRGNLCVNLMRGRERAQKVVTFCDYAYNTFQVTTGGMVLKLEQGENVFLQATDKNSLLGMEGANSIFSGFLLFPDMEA
T1 sequence (P02747 29-245 limits assumed, chain 3 of 3): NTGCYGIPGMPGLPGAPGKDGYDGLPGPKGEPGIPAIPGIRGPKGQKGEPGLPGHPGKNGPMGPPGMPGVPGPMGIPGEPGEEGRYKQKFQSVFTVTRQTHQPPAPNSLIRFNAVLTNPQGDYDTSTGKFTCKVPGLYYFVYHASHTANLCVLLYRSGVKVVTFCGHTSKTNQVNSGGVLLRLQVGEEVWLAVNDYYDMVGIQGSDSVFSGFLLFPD
protein G agarose, sequence (P06654 228-352): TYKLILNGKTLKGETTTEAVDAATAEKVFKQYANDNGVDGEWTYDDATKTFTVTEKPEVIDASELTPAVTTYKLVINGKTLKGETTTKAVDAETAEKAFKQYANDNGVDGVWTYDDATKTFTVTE

B1: mA116 scFv Ab (scFv)
scFv: QVQLQESGPELVKPGASVKISCKASGYTFTDYHVHWVKGKPGQGLEWIGMTYPGFDNTNYSETFKGKATLTVDTSSNTVYMQLSSLTSEDTAVYFCARGVGLDYWGQGTTVTVSSGGGGSGGGGSGGGGSDIELTQSPNSLSTSIGDRIRITCKASQDVDTAVGWYQQRPGQSPKLLIFWSSTRHTGVPDRFTGSGSGTDFTLTISNVQSEDLADYFCHQYSSYPFTFGSGTKLEIK
notes: also called repaired A116 scFv Ab
On to B1, for which the binding result in test [1] is given as “no binding”.

B2: mA116huFc Ab (Fc fusion)
chain: MRGSHHHHHHGMASMTGGQQMGRDLYDDDDKDRWGSELEICSWYHGIPLVVPFYAAQPAMAQVQLQESGPELVKPGASVKISCKASGYTFTDYHVHWVKGKPGQGLEWIGMTYPGFDNTNYSETFKGKATLTVDTSSNTVYMQLSSLTSEDTAVYFCARGVGLDYWGQGTTVTVSSGGGGSGGGGSGGGGSDIELTQSPNSLSTSIGDRIRITCKASQDVDTAVGWYQQRPGQSPKLLIFWSSTRHTGVPDRFTGSGSGTDFTLTISNVQSEDLADYFCHQYSSYPFTFGSGTKLEIKRAAAGCLVKDYFPEPVTVSWNSGALTSGVHTFPAVLQSSGLYSLSSVVTVPSSSLGTQTYICNVNHKPSNTKVDKRVEPKSCDKTHTCPPCPAPELLGGPSVFLFPPKPKDTLMISRTPEVTCVVVDVSHEDPEVKFNWYVDGVEVHNAKTKPREEQYNSTYRVVSVLTVLHQDWLNGKEYKCKVSNKALPAPIEKTISKAKGQPREPQVYTLPPSRDELTKNQVSLTCLVKGFYPSDIAVEWESNGQPENNYKTTPPVLDSDGSFFLYSKLTVDKSRWQQGNVFSCSVMHEALHNHYTQKSLIRLLTKPERKLSWLLPPLSNN
notes: also called recombinant mA116huFc Ab; 70 kDa protein
As to B2, the binding result in test [2] is recorded as “binds”.
